{
  "source": "patent US20160287696A1",
  "about": "“PAN POLLEN IMMUNOGENS AND METHODS AND USES FOR IMMUNE RESPONSE MODULATION” (LA JOLLA INSTITUTE FOR ALLERGY AND IMMUNOLOGY, priority 2013, published 2016)",
  "molecules": {"B1": {"name": "NTGA 1: Phl p (Timothy grass pollen) wild type sequence, Table 2 (protein)", "chain": "MAATIQSVKARQIFDSRGNPTVEVDVCCSDGTFARAAVPSGASTGVYEALELRDGGSDYLGKGVLKAVDNVNSIIGPALIGKDPTEQTELDNFMVHQLDGTKNEWGWCKQKLGANAILAVSLAVCKAGALVKKIPLYQHIANLAGNKQLVLPVPAFNVINGGSHAGNKLAMQEFMILPTGASSFKEAMKMGVEVYHNLKSVIKKKYGQDATNVGDEGGFAPNIQENKEGLELLKTAIEKAGYTGKVVIGMDVAASEFYGEKDQTYDLNFKEENNDGSQKISGDSLKNVYKSFVSEYPIVSIEDPFDQDDWVHYAKMTEEIGEQVQIVGDDLLVTNPTRVAKAIAEKSCNALLLKVNQIGSVTESIEAVKMSKRAGWGVMTSHRSGETEDTFIADLAVGLSTGQIKTGAPCRSERLAKYNQLLRIEEELGAAAVYAGLKFRAPVEPY", "modifications": "Phleum Pratense"}, "B2": {"name": "NTGA 4: Phl p wild type sequence, Table 2 (protein)", "chain": "YIKLMKTIFDFESIKKLLASPKFSFCFDGLHGVAGAYAKRMFVDELGASESSLLNCVPKEDFGGGHPDPNLTYAKELVERMGLGKSSSNVEPPEFGAAADGDADRNMVLGKRFFVTPSDSVAIIAANAVQSIPYFASGLKGVARSMPTSAALDVVAKNLNLKFFEVPTGWKFFGNLMDAGMCSVCGEESFGTGSDHIREKDGIWAVLAWLSIIAYKNKDNLGGDKLVSVEDIVLQHWATYGRHYYTRYDYENVDAEAAKELMANLVKMQSALSDVNKLIKEIQPDVAEVVSADEFEYKDPVDGSVSKHQGIRYLFGDGSRLVFRLSGTGSVGATIRIYIEQYEKDSSKTGRESSDALSPLVDVALKLSKIKEYTGRSAPTVIT", "modifications": "Phleum Pratense"}, "B3": {"name": "NTGA 9: Phl p wild type sequence, Table 2 (protein)", "chain": "MAQLQETYACSPATERGRGILLGGDAKTDTIVYCAGRTVFFRRLDAPLDAWTYTEHAYPTTVARISPNGEWVASADVSGCVRVWGRNGDRALKAEFRPISGRVDDLRWSPDGLRIVVSGDGKGKSLVRAFMWDSGSTVGDFDGHSKRVLSCDFKPTRPFRIVTCGEDFLANYYEGPPFKFKHSIRDHSNFVNCIRYSPDGSKFITVSSDKRGLIYDGKTGDKIGELSSEDSHTGSIYAVSWSADSKQVLTVSADKTAKVWDIMEDASGKVNRTLVCTGIGGVDDMLVGCLWQNDHLVTVSLGGTFNVFSASNPDKEPVSFAGHLKTVSSLTYFPQSNPRTMLSTSYDGVIIRWIQGVGYGGRLIRKNNTQIKCFVAAEEELITSGYDNMVFRIPLNGDQCGDAESVDVGGQPNALNIAVQQPEFALITTDSAIVLLHKSTVTSTTKVSYTITSSAVSPDGTEAIVGAQDGKLRIYSISGDTLTEEAVLERHRGAITSIHYSPDVSMFASADANREAVAWDRATREIKLKNMLFHTARINCLAWSPDSRLVATGSIDTCAIIYDVDKPASSRITIKGAHLGGVHGLTFADNDTLVTAGEDACVRVWKLV", "modifications": "Phleum Pratense"}},
  "system": "cultured PBMCs of the allergic donors",
  "assay": "ELISPOT of IL-5 or IFNg production by cultured PBMCs of TG allergic donors in response to peptide",
  "type": "cell-based, human",
  "conditions": "for NTGA's containing at least one T cell epitope, Th+ (Col 2): NTGA number given = criterion met, TG allergic donors n=20; for No of PG+ & th+ peptides per NTGA / No of PP & Th+ peptides per NTGA: Table 6; for No of PG+ & th+ peptides per NTGA: PG+ peptides recognized by T cells of grass allergic donors (n=20); for No of PP & Th+ peptides per NTGA: PP peptides recognized by T cells of grass allergic donors (n=20); for # Th+: Table 7, peptides per NTGA recognized by T cells of grass allergic donors (n=20)",
  "source_text": "Table 1 indicates for each of the 397 PG+ peptides in which non-grass pollen species a matching peptide with either less than 3, less than 2 or zero mismatches are found. The number of TG grass allergic donors (n=20) with an in vitro T cell response to the TG peptide sequence is also shown.\nA set of 93 proteins from Timothy grass (TG) pollen and the assembly of 822 peptides (15 mers) predicted to promiscuously bind HLA class II molecules shown in Table 9 and the immune reactivity in allergic donors have been reported in PCT application WO 2013/119863. […] Immune reactivity was determined by the production of IL-5 or IFNg from cultured PBMCs of the allergic donors in response to stimulation with a peptide and IL-5 and IFNg were measured by ELISPOT as described in Oseroff C et al, 2010.\nIn short, T cell immune reactivity was determined using PBMCs isolated from study participants and stored in liquid nitrogen until further use. For experimental testing, PBMCs were thawed and expanded in vitro with TG pollen extract (50 μg/mL) or the peptide pool ([…]). The TG extract and peptide pools had each been previously titrated to determine optimal stimulation concentrations.\nCytokine production by cultured PBMCs in response to antigen stimulation was measured by ELISPOT. Cells (1×10^5 cells/well) were plated and incubated with peptide (10 μg/mL), the peptide pool (5 μg/mL), or the TG extract (50 μg/mL). Phytohaemagglutinin (10 μg/mL) and medium alone were used as positive and negative controls, respectively. Samples were considered to produce a cytokine if 100 spot-forming cells (SFCs)/10^6 PBMCs were detected, with P .05 and a stimulation index of 2 or more. Criteria for individual peptides were the same except that a minimum of 20 SFCs were required for a sample to be counted as positive.\nTable 3 lists the 397 PG+ peptides and indicates for each non-grass pollen species whether a matching peptide with either less than 3, less than 2 or zero mismatches could be detected. The immune reactivity of the TG peptide was assessed as the number of TG grass allergic donors (n=20) having in vitro T cell response against the TG peptide.",
  "data": [
    {"molecule": "B1", "values": [
      {"measurement": "NTGA's containing at least one T cell epitope, Th+ (Col 2)", "value": 1},
      {"measurement": "No of PG+ & th+ peptides per NTGA", "value": 5},
      {"measurement": "No of PP & Th+ peptides per NTGA", "value": 4},
      {"measurement": "# Th+", "value": 0}
    ]},
    {"molecule": "B2", "values": [
      {"measurement": "NTGA's containing at least one T cell epitope, Th+ (Col 2)", "value": 4},
      {"measurement": "No of PG+ & th+ peptides per NTGA", "value": 4},
      {"measurement": "No of PP & Th+ peptides per NTGA", "value": 3},
      {"measurement": "# Th+", "value": 0}
    ]},
    {"molecule": "B3", "values": [
      {"measurement": "NTGA's containing at least one T cell epitope, Th+ (Col 2)", "value": 9},
      {"measurement": "No of PG+ & th+ peptides per NTGA", "value": 3},
      {"measurement": "No of PP & Th+ peptides per NTGA", "value": 1},
      {"measurement": "# Th+", "value": 0}
    ]}
  ]
}
